Experimental data taken from patent US20230056099.

Molecular target: thrombin (human alpha-thrombin) (UniProt P00734+P00734)
Assay: inhibition
Conditions: 0.1 nM thrombin, 2 uM fibrinogen, absorbance 350 nm
[1] = circular (5' and 3' ends joined), N = random nucleotide

Row | Sequence | IC50 (circular, random pool carrying fixed GGTTGGTGTGGTTGG core) | IC50 [1]
1 | ATCTCGACTAGTCANNNNNNNNNNNNNNNNNNNNGGTTGGTGTGGTTGGNNNNNNNNNNNNNNNNNNNNTGTCTCGGAT [Lib (random circular nucleic acid)] | 72.1 nM | 
2 | ATCTCGACTAGTCATAGGGGGCGCGAACATACGCGGTTGGTGTGGTTGGCTGACAANNNNNNNTTTTGGTGTCTCGGAT [M3] |  | 0.18 nM
3 | ATCTCGACTAGTCATAGGGGGCGCGAACATACGCGGTTGGTGTGGTTGGCTGACAATACTCGTNNNNNNNGTCTCGGAT [M4] |  | 0.1 nM
4 | ATCTCGACTAGTCATAGGGGGCGCGAACATACGCGGTTGGTGTGGTTGGCTGACAATACTCGTTTTTGGTNNNNNNNNN [M5] |  | 0.11 nM
5 | ATCTCGANNNNNNNTAGGGGGCGCGAACATACGCGGTTGGTGTGGTTGGCTGACAATACTCGTTTTTGGTGTCTCGGAT [M2] |  | 0.36 nM
6 | NNNNNNNCTAGTCATAGGGGGCGCGAACATACGCGGTTGGTGTGGTTGGCTGACAATACTCGTTTTTGGTGTCTCGGAT [M1] |  | 0.37 nM
